# Data: PMC9122893 (Cell host & microbe, 2021)
# T1: IpaH7.8 wild-type (recombinant) (Shigella flexneri, UniProt P18014 2-565)
# T1 sequence: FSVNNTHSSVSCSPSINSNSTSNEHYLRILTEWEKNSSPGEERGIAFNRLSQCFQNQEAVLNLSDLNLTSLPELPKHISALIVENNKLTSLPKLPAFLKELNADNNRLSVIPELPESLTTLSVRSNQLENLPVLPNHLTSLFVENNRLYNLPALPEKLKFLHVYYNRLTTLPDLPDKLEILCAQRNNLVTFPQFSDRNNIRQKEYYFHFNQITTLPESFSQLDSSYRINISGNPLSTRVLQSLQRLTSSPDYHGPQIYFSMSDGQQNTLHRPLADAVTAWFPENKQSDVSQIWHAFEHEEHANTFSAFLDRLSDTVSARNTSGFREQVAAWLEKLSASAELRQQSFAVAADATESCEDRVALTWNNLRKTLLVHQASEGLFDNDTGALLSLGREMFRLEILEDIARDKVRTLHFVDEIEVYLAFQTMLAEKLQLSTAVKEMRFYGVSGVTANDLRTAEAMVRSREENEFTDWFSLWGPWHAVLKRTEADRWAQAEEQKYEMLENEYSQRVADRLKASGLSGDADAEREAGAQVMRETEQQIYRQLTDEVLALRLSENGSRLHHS
# Biological target: T1, IpaH7.8 wild-type (recombinant)
# Assay: MST
binder,measurement,value
"hsGSDMD-1D4 (purified, dye-labelled) (natural protein, labelled with the 2nd generation red-maleimide dye (Nanotemper protein labeling kit)) MGSAFERVVRRVVQELDHGGEFIPVTSLQSSTGFQPYCLVVRKPSSSWFWKPRYKCVNLSIKDILEPDAAEPDVQRGRSFHFYDAMDGQIQGSVELAAPGQAKIAGGAAVSDSSSTSMNVYSLSVDPNTWQTLLHERHLRQPEHKVLQQLRSRGDNVYVVTEVLQTQKEVEVTRTHKREGSGRFSLPGATCLQGEGQGHLSQKKTVTIPSGSTLAFRVAQLVIDSDLDVLLFPDKKQRTFQPPATGHKRSTSEGAWPQLPSGLSMMRCLHNFLTDGVPAEGAFTEDFQGLRAEVETISKELELLDRELCQLLLEGLEGVLRDQLALRALEEALEQGQSLGPVEPLDGPAGAVLECLVLSSGMLVPELAIPVVYLLGALTMLSETQHKLLAEALESQTLLGPLELVGSLLEQSAPWQERSTMSLPPGLLGNSWGEGAPAWVLLDECGLELGEDTPHVCWEPQAQGRMCALYASLALLSGLSQEPH",Kd,194 nM
